Measured values reported in US7285618 (JAPAN TOBACCO, dated 2007).

Biological target: G protein (Gi) purified from rabbit liver (rabbit)
Assay: cell-based or functional assay

LSFLIPAGWVLSHLDHYKRSSAA [cytochrome C oxidase subunit peptide-1 (COSP-1)]
GTPase activity of Gi: ~6 fold
